Results taken from patent US20090149339A1 (published 2009).
Ends that are not written are not given here. * marks the point of attachment. Biotin = O=C1N[C@H]2[C@H](CS[C@H]2CCCCC(=O)*)N1

B1: LPAP C-terminal PL peptide AA30L, biotinylated (peptide)
peptide: Biotin-AWDDSARAAGGQGLHVTAL
B2: CD148 C-terminal PL peptide AA55L (ends KTIA), biotinylated (peptide)
peptide: Biotin-TIYENLAPVTTFGKTIA
B3: CLASP-4 C-terminal PL peptide AA3L-V, biotinylated (peptide)
peptide: Biotin-CAISGTSSDRGYGSPRYAEV

The binders below were run against GST-AF6 PDZ domain fusion protein (af-6 protein AA985-1077; PDZ domain 1 of 1) (UniProt P08515 1-218 = GST) (assay: A/G assays).

Binder | binding result
B1 | no binding
B2 | no binding

What follows are binders tested against T1, GST-NeDLG PDZ domain fusion protein (presynaptic protein sao102, neuroendocrine-dlg; PDZ domains 1-2 of 3) (UniProt P08515 1-218 = GST) (assay: A/G assays).
T1 construct: also called NeDLG1

Binder | binding result
B1 | no binding
B2 | no binding

What follows are binders tested against T2, GST-TAX43 PDZ domain fusion protein (human tax interaction protein 43 AA15-85; PDZ domain 1 of 1) (human, UniProt P08515 1-218 = GST) (assay: A/G assays).
T2 construct: also called TX 43
T2 sequence (P08515 1-218, tags or fused parts left off): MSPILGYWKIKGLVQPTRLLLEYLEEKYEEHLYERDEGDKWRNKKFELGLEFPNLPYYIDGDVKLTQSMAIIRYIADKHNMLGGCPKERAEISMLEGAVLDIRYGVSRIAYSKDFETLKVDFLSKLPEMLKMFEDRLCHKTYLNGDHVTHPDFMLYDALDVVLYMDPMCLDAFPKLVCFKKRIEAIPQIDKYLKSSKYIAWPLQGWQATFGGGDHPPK

Binder | binding result
B1 | no binding
B3 | no binding
B2 | no binding

Each binder was assayed against GST-NOS1 PDZ domain fusion protein (human neuronal nitric oxide synthase; PDZ domain 1 of 1) (human, UniProt P08515 1-218 = GST) (assay: A/G assays).
GST-NOS1 PDZ domain fusion protein (human neuronal nitric oxide synthase; PDZ domain 1 of 1), sequence (P08515 1-218, tags or fused parts left off): as above

Binder | binding result
B1 | no binding
B3 | no binding
B2 | no binding

Each binder was assayed against GST-PTN-4 PDZ domain fusion protein (protein-tyrosine phosphatase meg1 AA774-862; PDZ domain 1 of 1) (UniProt P08515 1-218 = GST) (assay: A/G assays).
GST-PTN-4 PDZ domain fusion protein (protein-tyrosine phosphatase meg1 AA774-862; PDZ domain 1 of 1), sequence (P08515 1-218, tags or fused parts left off): as above

Binder | binding result
B1 | no binding
B3 | no binding
B2 | no binding

Each binder was assayed against GST-DVL1 PDZ domain fusion protein (human dishevelled segment polarity protein homolog AA248-340); PDZ domain … (human, UniProt P08515 1-218 = GST) (assay: A/G assays).
GST-DVL1 PDZ domain fusion protein (human dishevelled segment polarity protein homolog AA248-340); PDZ domain …, sequence (P08515 1-218, tags or fused parts left off): as above

Binder | binding result
B1 | no binding
B3 | no binding
B2 | no binding

What follows are binders tested against T3, GST-KIAA0303 PDZ domain fusion protein (KIAA0303 AA652-742; PDZ domain 1 of 1) (UniProt P08515 1-218 = GST) (assay: A/G assays).
T3 construct: also called K303
T3 sequence (P08515 1-218, tags or fused parts left off): as above

Binder | binding result
B1 | no binding
B3 | no binding
B2 | no binding

These binders were tested against T4, GST-KIAA0316 PDZ domain fusion protein (KIAA0316 AA197-284; PDZ domain 1 of 1) (UniProt P08515 1-218 = GST) (assay: A/G assays).
T4 construct: also called K316
T4 sequence (P08515 1-218, tags or fused parts left off): as above

Binder | binding result
B1 | no binding
B3 | no binding
B2 | no binding

Each binder was assayed against GST-MPP1 PDZ domain fusion protein (55 Kd erythrocyte membrane protein AA101-186; PDZ domain 1 of 1) (UniProt P08515 1-218 = GST) (assay: A/G assays).
GST-MPP1 PDZ domain fusion protein (55 Kd erythrocyte membrane protein AA101-186; PDZ domain 1 of 1), sequence (P08515 1-218, tags or fused parts left off): as above

Binder | binding result
B1 | no binding
B3 | no binding
B2 | no binding

What follows are binders tested against GST-LIM PDZ domain fusion protein (Human LIM protein AA29-112; PDZ domain 1 of 1) (human, UniProt P08515 1-218 = GST) (assay: A/G assays).
GST-LIM PDZ domain fusion protein (Human LIM protein AA29-112; PDZ domain 1 of 1), sequence (P08515 1-218, tags or fused parts left off): as above

Binder | binding result
B1 | no binding
B3 | no binding
B2 | no binding

What follows are binders tested against GST-prIL16 PDZ domain fusion protein (putative interleukin 16 precursor AA170-383; PDZ domains 1-2 of 2) (UniProt P08515 1-218 = GST) (assay: A/G assays).
GST-prIL16 PDZ domain fusion protein (putative interleukin 16 precursor AA170-383; PDZ domains 1-2 of 2), sequence (P08515 1-218, tags or fused parts left off): as above

Binder | binding result
B1 | no binding
B3 | no binding
B2 | no binding

What follows are binders tested against T5, GST-TAX2 PDZ domain fusion protein (human tax interaction protein 2 AA54-140; PDZ domain 1 of 1) (human, UniProt P08515 1-218 = GST) (assay: A/G assays).
T5 construct: also called TX 2
T5 sequence (P08515 1-218, tags or fused parts left off): as above

Binder | binding result
B1 | no binding
B3 | no binding
B2 | no binding

These binders were tested against T6, GST-CBP PDZ domain fusion protein (Cytohesin binding protein HE AA85-175; PDZ domain 1 of 1) (UniProt P08515 1-218 = GST) (assay: A/G assays).
T6 construct: also called Prot
T6 sequence (P08515 1-218, tags or fused parts left off): as above

Binder | binding result
B1 | no binding
B3 | no binding
B2 | no binding

What follows are binders tested against T7, GST-TAX33 PDZ domain fusion protein (tax interaction protein 33 AA73-162; PDZ domain 1 of 1) (UniProt P08515 1-218 = GST) (assay: A/G assays).
T7 construct: also called TX33
T7 sequence (P08515 1-218, tags or fused parts left off): as above

Binder | binding result
B1 | no binding
B3 | no binding
B2 | no binding

The binders below were run against T8, GST-RGS12 PDZ domain fusion protein (human regulator of G-protein signalling 12 AA35-103; PDZ domain 1 of 1) (human, UniProt P08515 1-218 = GST) (assay: A/G assays).
T8 construct: also called RSG12
T8 sequence (P08515 1-218, tags or fused parts left off): as above

Binder | binding result
B1 | no binding
B3 | no binding
B2 | no binding

The binders below were run against T9, GST-CASK PDZ domain fusion protein (CASK AA495-584; PDZ domain 1 of 1) (mouse, UniProt P08515 1-218 = GST) (assay: A/G assays).
T9 construct: also called mCASK
T9 sequence (P08515 1-218, tags or fused parts left off): as above

Binder | binding result
B1 | no binding
B3 | no binding
B2 | no binding

What follows are binders tested against T10, GST-MPP2 PDZ domain fusion protein (maguk p55 subfamily member 2 (DLG2) AA185-273; PDZ domain 1 of 1) (UniProt P08515 1-218 = GST) (assay: A/G assays).
T10 construct: also called MMP2
T10 sequence (P08515 1-218, tags or fused parts left off): as above

Binder | binding result
B1 | no binding
B3 | no binding
B2 | no binding

What follows are binders tested against T11, GST-41.8 kD PDZ domain fusion protein (hypothetical 41.8 kD protein AA4-85; PDZ domain 1 of 1) (UniProt P08515 1-218 = GST) (assay: A/G assays).
T11 construct: also called hypoth

Binder | binding result
B1 | no binding
B2 | no binding

The binders below were run against GST-MINT3 PDZ domain fusion protein (human MINT3 AA11-52; PDZ domain 1 of 1) (human, UniProt P08515 1-218 = GST) (assay: A/G assays).
GST-MINT3 PDZ domain fusion protein (human MINT3 AA11-52; PDZ domain 1 of 1), sequence (P08515 1-218, tags or fused parts left off): as above

Binder | binding result
B1 | no binding
B3 | no binding
B2 | no binding

These binders were tested against GST-LIMK2 PDZ domain fusion protein (human LIM domain kinase 2 AA185-275; PDZ domain 1 of 1) (human, UniProt P08515 1-218 = GST) (assay: A/G assays).
GST-LIMK2 PDZ domain fusion protein (human LIM domain kinase 2 AA185-275; PDZ domain 1 of 1), sequence (P08515 1-218, tags or fused parts left off): as above

Binder | binding result
B1 | no binding
B3 | no binding
B2 | no binding

Each binder was assayed against GST-PSD95 PDZ domain fusion protein (human post-synaptic density protein 95 AA387-724; PDZ domains 1-3 of 3) (human, UniProt P08515 1-218 = GST) (assay: A/G assays).

Binder | binding result
B1 | no binding
B2 | no binding

Each binder was assayed against T12, GST-TAX40 PDZ domain fusion protein (human tax interaction protein 40 AA35-137; PDZ domain 1 of 1) (human, UniProt P08515 1-218 = GST) (assay: A/G assays).
T12 construct: also called TX 40
T12 sequence (P08515 1-218, tags or fused parts left off): as above

Binder | binding result
B1 | no binding
B3 | no binding
B2 | no binding

These binders were tested against T13, GST-KIAA0559 PDZ domain fusion protein (KIAA0559 AA766-870; PDZ1 of 1) (UniProt P08515 1-218 = GST) (assay: A/G assays).
T13 construct: also called K559
T13 sequence (P08515 1-218, tags or fused parts left off): as above

Binder | binding result
B1 | no binding
B3 | no binding
B2 | no binding

The binders below were run against GST-TIAM1 PDZ domain fusion protein (T-lymphoma invasion and metastasis inducing protein 1 AA1001-1088); PDZ 1 … (UniProt P08515 1-218 = GST) (assay: A/G assays).
GST-TIAM1 PDZ domain fusion protein (T-lymphoma invasion and metastasis inducing protein 1 AA1001-1088); PDZ 1 …, sequence (P08515 1-218, tags or fused parts left off): as above

Binder | binding result
B1 | no binding
B3 | no binding
B2 | no binding

Each binder was assayed against T14, GST-SYN1a PDZ domain fusion protein (alpha1-syntrophin AA96-189; PDZ domain 1 of 1) (UniProt P08515 1-218 = GST) (assay: A/G assays).
T14 construct: also called SYN 1 alpha; SYNTR 1 alpha
T14 sequence (P08515 1-218, tags or fused parts left off): as above

Binder | binding result
B1 | no binding
B3 | no binding
B2 | no binding
